From patent US20110271408A1 (University of California, published 2011)

Biological target: T1, HAB1-GAL4 AD (Gal4 activation domain (AD)-PP2C fusion protein encoded by pAD-HAB1) (UniProt Q9CAJ0 1-511, limits assumed)
T1 construct: Prey of the yeast two-hybrid assays; also called HAB1-AD
T1 sequence (looked up): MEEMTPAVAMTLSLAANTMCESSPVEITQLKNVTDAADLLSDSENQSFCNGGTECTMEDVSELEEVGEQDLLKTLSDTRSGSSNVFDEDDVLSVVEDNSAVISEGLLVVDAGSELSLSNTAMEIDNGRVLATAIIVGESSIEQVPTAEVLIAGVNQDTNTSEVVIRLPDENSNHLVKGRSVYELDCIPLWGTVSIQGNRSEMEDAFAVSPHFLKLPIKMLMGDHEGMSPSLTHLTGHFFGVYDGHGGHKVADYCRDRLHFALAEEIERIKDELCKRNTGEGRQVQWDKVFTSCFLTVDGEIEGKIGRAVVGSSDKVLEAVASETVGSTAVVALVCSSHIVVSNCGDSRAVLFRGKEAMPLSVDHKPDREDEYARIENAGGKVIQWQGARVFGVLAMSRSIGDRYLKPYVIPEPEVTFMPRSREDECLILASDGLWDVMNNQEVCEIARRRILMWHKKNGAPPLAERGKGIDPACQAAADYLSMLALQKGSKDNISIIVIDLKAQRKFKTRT
Experiment: yeast two-hybrid X-gal staining on increasing concentrations of fenhexamid (Y190 pAD-HAB1)

binding result: no binding
B1: PYL2 K64R, Y124H, M164I mutant, GAL4 BD fusion (pBD-PYL2) (receptor)
chain: MSSSPAVKGLTDEEQKTLEPVIKTYHQFEPDPTTCTSLITQRIHAPASVVWPLIRRFDNPERYRHFVKRCRLISGDGDVGSVREVTVISGLPASTSTERLEFVDDDHRVLSFRVVGGEHRLKNHKSVTSVNEFLNQDSGKVYTVVLESYTVDIPEGNTEEDTKIFVDTVVKLNLQKLGVAATSAPMHDDE
